According to PMC10240212 (EMBO Reports, 2023):

Tests used:
SEC = biological target: the molecule itself; experiment: SEC
mass photometry = biological target: the molecule itself; experiment: mass photometry

B1: Teneurin‐m superfold (Ten‐m^SF), residues 779–2731 (domain or fragment)
chain: LNCGDSKDNDKDGLVDCEDPECCASHVCKTSQLCVSAPKPIDVLLRKQPPAITASFFERMKFLIDESSLQNYAKLETFNESRSAVIRGRVVTSLGMGLVGVRVSTTTLLEGFTLTRDDGWFDLMVNGGGAVTLQFGRAPFRPQSRIVQVPWNEVVIIDLVVMSMSEEKGLAVTTTHTCFAHDYDLMKPVVLASWKHGFQGACPDRSAILAESQVIQESLQIPGTGLNLVYHSSRAAGYLSTIKLQLTPDVIPTSLHLIHLRITIEGILFERIFEADPGIKFTYAWNRLNIYRQRVYGVTTAVVKVGYQYTDCTDIVWDIQTTKLSGHDMSISEVGGWNLDIHHRYNFHEGILQKGDGSNIYLRNKPRIILTTMGDGHQRPLECPDCDGQATKQRLLAPVALAAAPDGSLFVGDFNYIRRIMTDGSIRTVVKLNATRVSYRYHMALSPLDGTLYVSDPESHQIIRVRDTNDYSQPELNWEAVVGSGERCLPGDEAHCGDGALAKDAKLAYPKGIAISSDNILYFADGTNIRMVDRDGIVSTLIGNHMHKSHWKPIPCEGTLKLEEMHLRWPTELAVSPMDNTLHIIDDHMILRMTPDGRVRVISGRPLHCATASTAYDTDLATHATLVMPQSIAFGPLGELYVAESDSQRINRVRVIGTDGRIAPFAGAESKCNCLERGCDCFEAEHYLATSAKFNTIAALAVTPDSHVHIADQANYRIRSVMSSIPEASPSREYEIYAPDMQEIYIFNRFGQHVSTRNILTGETTYVFTYNVNTSNGKLSTVTDAAGNKVFLLRDYTSQVNSIENTKGQKCRLRMTRMKMLHELSTPDNYNVTYEYHGPTGLLRTKLDSTGRSYVYNYDEFGRLTSAVTPTGRVIELSFDLSVKGAQVKVSENAQKEMSLLIQGATVIVRNGAAESRTTVDMDGSTTSITPWGHNLQMEVAPYTILAEQSPLLGESYPVPAKQRTEIAGDLANRFEWRYFVRRQQPLQAGKQSKGPPRPVTEVGRKLRVNGDNVLTLEYDRETQSVVVMVDDKQELLNVTYDRTSRPISFRPQSGDYADVDLEYDRFGRLVSWKWGVLQEAYSFDRNGRLNEIKYGDGSTMVYAFKDMFGSLPLKVTTPRRSDYLLQYDDAGALQSLTTPRGHIHAFSLQTSLGFFKYQYYSPINRHPFEILYNDEGQILAKIHPHQSGKVAFVHDTAGRLETILAGLSSTHYTYQDTTSLVKSVEVQEPGFELRREFKYHAGILKDEKLRFGSKNSLASARYKYAYDGNARLSGIEMAIDDKELPTTRYKYSQNLGQLEVVQDLKITRNAFNRTVIQDSAKQFFAIVDYDQHGRVKSVLMNVKNIDVFRLELDYDLRNRIKSQKTTFGRSTAFDKINYNADGHVVEVLGTNNWKYLFDENGNTVGVVDQGEKFNLGYDIGDRVIKVGDVEFNNYDARGFVVKRGEQKYRYNNRGQLIHSFERERFQSWYYYDDRSRLVAWHDNKGNTTQYYYANPRTPHLVTHVHFPKISRTMKLFYDDRDMLIALEHEDQRYYVATDQNGSPLAFFDQNGSIVKEMKRTPFGRIIKDTKPEFFVPIDFHGGLIDPHTKLVYTEQRQYDPHVGQWMTPLWETLATEMSHPTDVFIYRYHNNDPINPNKPQNYMIDLDSWLQLFGYDLNNMQSSRYTKLAQYTPQASIKSNTLAPDFGVISGLECIVEKTSEKFSDFDFVPKPLLKMEPKMRNLLPRVSYRRGVFGEGVLLSRIGGRALVSVVDGSNSVVQDVVSSVFNNSYFLDLHFSIHDQDVFYFVKDNVLKLRDDNEELRRLGGMFNISTHEISDHGGSAAKELRLHGPDAVVIIKYGVDPEQERHRILKHAHKRAVERAWELEKQLVAAGFQGRGDWTEEEKEELVQHGDVDGWNGIDIHSIHKYPQLADDPGNVAFQRDAKRKRRKTGSSHRSASNRRQLKFGELSA
SEC
  stoichiometry N: 2
Mass photometry
  stoichiometry N: ~4
